This note sets out measurements from IntAct's records for PubMed 31515488.

B1: LIM/homeobox protein Lhx4 (Homo sapiens), Q969G2 (parent)
chain: MMQSATVPAEGAVKGLPEMLGVPMQQIPQCAGCNQHILDKFILKVLDRHWHSSCLKCADCQMQLADRCFSRAGSVYCKEDFFKRFGTKCTACQQGIPPTQVVRKAQDFVYHLHCFACIICNRQLATGDEFYLMEDGRLVCKEDYETAKQNDDSEAGAKRPRTTITAKQLETLKNAYKNSPKPARHVREQLSSETGLDMRVVQVWFQNRRAKEKRLKKDAGRHRWGQFYKSVKRSRGSSKQEKESSAEDCGVSDSELSFREDQILSELGHTNRIYGNVGDVTGGQLMNGSFSMDGTGQSYQDLRDGSPYGIPQSPSSISSLPSHAPLLNGLDYTVDSNLGIIAHAGQGVSQTLRAMAGGPTSDISTGSSVGYPDFPTSPGSWLDEMDHPPF
partner: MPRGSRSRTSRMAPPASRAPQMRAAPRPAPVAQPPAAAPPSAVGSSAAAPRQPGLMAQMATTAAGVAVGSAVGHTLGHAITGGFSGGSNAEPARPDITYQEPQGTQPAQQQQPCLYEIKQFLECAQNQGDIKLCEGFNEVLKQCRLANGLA
B2: Dystrobrevin beta (Homo sapiens), O60941 (parent)
chain: MIEESGNKRKTMAEKRQLFIEMRAQNFDVIRLSTYRTACKLRFVQKRCNLHLVDIWNMIEAFRDNGLNTLDHTTEISVSRLETVISSIYYQLNKRLPSTHQISVEQSISLLLNFMIAAYDSEGRGKLTVFSVKAMLATMCGGKMLDKLRYVFSQMSDSNGLMIFSKFDQFLKEVLKLPTAVFEGPSFGYTEHSVRTCFPQQRKIMLNMFLDTMMADPPPQCLVWLPLMHRLAHVENVFHPVECSYCRCESMMGFRYRCQQCHNYQLCQNCFWRGHAGGPHSNQHQMKEHSSWKSPAKKLSHAISKSLGCVPTREPPHPVFPEQPEKPLDLAHIVPPRPLTNMNDTMVSHMSSGVPTPTKRLQYSQDIPSHLADEHALIASYVARLQHCARVLDSPSRLDEEHRLIARYAARLAAEAGNVTRPPTDLSFNFDANKQQRQLIAELENKNREILQEIQRLRLEHEQASQPTPEKAQQNPTLLAELRLLRQRKDELEQRMSALQESRRELMVQLEELMKLLKEEEQKQAAQATGSPHTSPTHGGGRPMPMPVRSTSAGSTPTHCPQDSLSGVGGDVQEAFAQGTRRNLRNDLLVAADSITNTMSSLVKELHSAEEGAEEEEEKMQNGKDRG
B3: Methylthioribulose-1-phosphate dehydratase (Homo sapiens), Q96GX9 (parent)
chain: MSGCDAREGDCCSRRCGAQDKEHPRYLIPELCKQFYHLGWVTGTGGGISLKHGDEIYIAPSGVQKERIQPEDMFVCDINEKDISGPSPSKKLKKSQCTPLFMNAYTMRGAGAVIHTHSKAAVMATLLFPGREFKITHQEMIKGIKKCTSGGYYRYDDMLVVPIIENTPEEKDLKDRMAHAMNEYPDSCAVLVRRHGVYVWGETWEKAKTMCECYDYLFDIAVSMKKVGLDPSQLPVGENGIV
partner: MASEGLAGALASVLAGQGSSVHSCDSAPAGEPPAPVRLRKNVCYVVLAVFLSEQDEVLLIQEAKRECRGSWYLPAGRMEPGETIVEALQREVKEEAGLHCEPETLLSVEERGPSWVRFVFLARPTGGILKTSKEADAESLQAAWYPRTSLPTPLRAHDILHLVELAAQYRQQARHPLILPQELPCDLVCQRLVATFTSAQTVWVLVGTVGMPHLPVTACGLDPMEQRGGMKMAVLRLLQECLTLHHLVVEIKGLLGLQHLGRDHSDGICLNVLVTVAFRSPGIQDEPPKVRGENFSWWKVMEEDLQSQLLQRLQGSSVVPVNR
B4: Growth arrest and DNA damage-inducible protein GADD45 gamma (Homo sapiens), O95257 (parent)
chain: MTLEEVRGQDTVPESTARMQGAGKALHELLLSAQRQGCLTAGVYESAKVLNVDPDNVTFCVLAAGEEDEGDIALQIHFTLIQAFCCENDIDIVRVGDVQRLAAIVGAGEEAGAPGDLHCILISNPNEDAWKDPALEKLSLFCEESRSVNDWVPSITLPE
B5: Protein FRA10AC1 (Homo sapiens), Q70Z53 (parent)
chain: MHGHGGYDSDFSDDERCGESSKRKKRTVEDDLLLQKPFQKEKHGKVAHKQVAAELLDREEARNRRFHLIAMDAYQRHTKFVNDYILYYGGKKEDFKRLGENDKTDLDVIRENHRFLWNEEDEMDMTWEKRLAKKYYDKLFKEYCIADLSKYKENKFGFRWRVEKEVISGKGQFFCGNKYCDKKEGLKSWEVNFGYIEHGEKRNALVKLRLCQECSIKLNFHHRRKEIKSKKRKDKTKKDCEESSHKKSRLSSAEEASKKKDKGHSSSKKSEDSLLRNSDEEESASESELWKGPLPETDEKSQEEEFDEYFQDLFL

In one assay the parent is B1. Conditions: with chch2_human CHCHD2, Q9Y6H1.
For N328S, the “effect of a mutation on the interaction” value is “with no effect”.

Another assay covers variants of B2. Conditions: with cep63_human CEP63, Q96MT8.
Chain of cep63_human CEP63, Q96MT8 (Q96MT8 whole entry): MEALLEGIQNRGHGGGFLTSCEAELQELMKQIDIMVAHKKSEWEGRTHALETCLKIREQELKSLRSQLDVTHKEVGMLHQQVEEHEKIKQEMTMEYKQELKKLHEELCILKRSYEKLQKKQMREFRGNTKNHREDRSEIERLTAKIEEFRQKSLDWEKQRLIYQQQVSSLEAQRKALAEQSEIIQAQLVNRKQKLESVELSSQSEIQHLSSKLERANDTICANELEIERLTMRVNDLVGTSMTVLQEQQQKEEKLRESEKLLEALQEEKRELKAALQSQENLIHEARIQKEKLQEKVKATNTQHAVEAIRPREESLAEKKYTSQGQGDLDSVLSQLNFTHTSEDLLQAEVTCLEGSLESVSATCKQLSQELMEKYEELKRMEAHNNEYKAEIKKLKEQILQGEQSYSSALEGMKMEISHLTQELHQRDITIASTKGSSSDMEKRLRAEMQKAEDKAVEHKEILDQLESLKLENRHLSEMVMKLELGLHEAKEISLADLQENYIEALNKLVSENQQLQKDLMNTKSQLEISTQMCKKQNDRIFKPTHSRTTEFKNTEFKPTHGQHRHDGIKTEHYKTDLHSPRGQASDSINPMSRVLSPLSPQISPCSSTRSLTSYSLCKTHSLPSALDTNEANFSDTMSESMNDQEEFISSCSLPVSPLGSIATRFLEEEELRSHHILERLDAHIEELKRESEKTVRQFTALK
With R80H, the “effect of a mutation on the interaction” value is “with no effect”.

A further assay covers variants of B2. To be noted: with traf2_human TRAF2, Q12933.
Chain of traf2_human TRAF2, Q12933 (Q12933 whole entry): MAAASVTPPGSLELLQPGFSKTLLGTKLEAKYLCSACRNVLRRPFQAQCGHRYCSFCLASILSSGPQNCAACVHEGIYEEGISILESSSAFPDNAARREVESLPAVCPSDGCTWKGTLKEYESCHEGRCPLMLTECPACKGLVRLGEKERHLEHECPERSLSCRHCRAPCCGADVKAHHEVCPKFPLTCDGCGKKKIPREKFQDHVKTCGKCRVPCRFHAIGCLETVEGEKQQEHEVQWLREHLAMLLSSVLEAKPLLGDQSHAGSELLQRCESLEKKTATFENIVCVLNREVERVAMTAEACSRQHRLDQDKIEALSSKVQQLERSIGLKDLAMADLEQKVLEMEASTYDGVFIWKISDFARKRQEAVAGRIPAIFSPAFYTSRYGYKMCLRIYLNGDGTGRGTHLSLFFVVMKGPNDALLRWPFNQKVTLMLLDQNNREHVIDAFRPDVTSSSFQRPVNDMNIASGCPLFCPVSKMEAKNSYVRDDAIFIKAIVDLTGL
R80H: the “effect of a mutation on the interaction” value is given as “with no effect”.
As for S396G, the “effect of a mutation on the interaction” value is “with no effect”.

The variants in a further assay derive from B2. To be noted: with tera_human VCP.
For the variant R80H, the “effect of a mutation on the interaction” value was “with no effect”.
As to S396G, the “effect of a mutation on the interaction” value is on record as “with no effect”.

Variants of B2 are the subject of the next assay. Conditions: with abi2_human ABI2, Q9NYB9.
Chain of abi2_human ABI2, Q9NYB9 (Q9NYB9 whole entry): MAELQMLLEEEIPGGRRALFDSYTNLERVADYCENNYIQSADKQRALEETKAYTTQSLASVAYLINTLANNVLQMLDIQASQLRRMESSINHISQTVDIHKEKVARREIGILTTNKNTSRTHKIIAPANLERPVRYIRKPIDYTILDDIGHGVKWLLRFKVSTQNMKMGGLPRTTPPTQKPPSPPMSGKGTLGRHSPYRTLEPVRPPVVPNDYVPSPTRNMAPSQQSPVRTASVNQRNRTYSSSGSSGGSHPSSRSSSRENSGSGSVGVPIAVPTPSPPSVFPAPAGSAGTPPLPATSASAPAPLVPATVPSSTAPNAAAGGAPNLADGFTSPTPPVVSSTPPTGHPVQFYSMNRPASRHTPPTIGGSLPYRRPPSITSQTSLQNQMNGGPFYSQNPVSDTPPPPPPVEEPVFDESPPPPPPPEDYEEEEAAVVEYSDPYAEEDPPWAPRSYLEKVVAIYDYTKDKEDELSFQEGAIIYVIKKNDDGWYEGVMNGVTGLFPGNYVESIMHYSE
For R80H, the “effect of a mutation on the interaction” value is given as “with no effect”.

Variants of B2 are the subject of another assay. Conditions: with lipa1_human PPFIA1, Q13136.
Chain of lipa1_human PPFIA1, Q13136 (Q13136 whole entry): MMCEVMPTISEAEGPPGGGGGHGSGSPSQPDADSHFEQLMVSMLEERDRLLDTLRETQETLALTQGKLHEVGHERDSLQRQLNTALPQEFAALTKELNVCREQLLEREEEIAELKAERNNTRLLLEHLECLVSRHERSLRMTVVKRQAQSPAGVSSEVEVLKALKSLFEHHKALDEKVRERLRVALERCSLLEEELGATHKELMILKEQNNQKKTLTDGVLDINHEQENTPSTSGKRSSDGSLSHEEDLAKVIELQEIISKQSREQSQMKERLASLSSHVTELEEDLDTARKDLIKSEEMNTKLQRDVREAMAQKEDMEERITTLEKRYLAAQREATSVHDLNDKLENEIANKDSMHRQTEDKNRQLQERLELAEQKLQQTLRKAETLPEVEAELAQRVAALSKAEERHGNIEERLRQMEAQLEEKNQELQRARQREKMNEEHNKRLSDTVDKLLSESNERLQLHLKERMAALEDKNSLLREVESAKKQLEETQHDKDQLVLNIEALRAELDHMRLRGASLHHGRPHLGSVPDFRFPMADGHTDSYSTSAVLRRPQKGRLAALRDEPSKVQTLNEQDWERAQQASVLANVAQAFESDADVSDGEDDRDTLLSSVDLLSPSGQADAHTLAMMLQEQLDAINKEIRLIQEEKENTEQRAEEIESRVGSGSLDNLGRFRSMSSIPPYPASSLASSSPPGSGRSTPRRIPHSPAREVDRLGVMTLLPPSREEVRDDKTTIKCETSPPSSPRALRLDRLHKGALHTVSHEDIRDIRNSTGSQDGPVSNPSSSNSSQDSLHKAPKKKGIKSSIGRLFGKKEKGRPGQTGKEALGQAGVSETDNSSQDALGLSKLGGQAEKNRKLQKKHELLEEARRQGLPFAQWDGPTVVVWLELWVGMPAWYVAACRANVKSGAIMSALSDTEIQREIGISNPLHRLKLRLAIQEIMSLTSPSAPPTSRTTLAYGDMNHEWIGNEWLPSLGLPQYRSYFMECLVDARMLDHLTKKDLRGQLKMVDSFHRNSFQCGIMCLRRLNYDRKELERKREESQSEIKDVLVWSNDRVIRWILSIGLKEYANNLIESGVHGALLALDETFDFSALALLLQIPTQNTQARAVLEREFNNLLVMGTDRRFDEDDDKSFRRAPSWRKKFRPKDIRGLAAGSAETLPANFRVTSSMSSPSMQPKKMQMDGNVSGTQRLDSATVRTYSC
Regarding S396G, the “effect of a mutation on the interaction” value is listed as “with no effect”.

Variants of B2 are the subject of another assay. Conditions: with dmd_human DMD.
Take S396G: the “effect of a mutation on the interaction” value was “with no effect”.

Variants of B3 are the subject of a further assay. Conditions: with nud18_human NUDT18, Q6ZVK8.
As to G111A, the “effect of a mutation on the interaction” value was “with no effect”.
M181V: the “effect of a mutation on the interaction” value is listed as “with no effect”.

Variants of B4 are the subject of another assay. To be noted: with af1l1_human AFAP1L1, Q8TED9.
Chain of af1l1_human AFAP1L1, Q8TED9 (Q8TED9 whole entry): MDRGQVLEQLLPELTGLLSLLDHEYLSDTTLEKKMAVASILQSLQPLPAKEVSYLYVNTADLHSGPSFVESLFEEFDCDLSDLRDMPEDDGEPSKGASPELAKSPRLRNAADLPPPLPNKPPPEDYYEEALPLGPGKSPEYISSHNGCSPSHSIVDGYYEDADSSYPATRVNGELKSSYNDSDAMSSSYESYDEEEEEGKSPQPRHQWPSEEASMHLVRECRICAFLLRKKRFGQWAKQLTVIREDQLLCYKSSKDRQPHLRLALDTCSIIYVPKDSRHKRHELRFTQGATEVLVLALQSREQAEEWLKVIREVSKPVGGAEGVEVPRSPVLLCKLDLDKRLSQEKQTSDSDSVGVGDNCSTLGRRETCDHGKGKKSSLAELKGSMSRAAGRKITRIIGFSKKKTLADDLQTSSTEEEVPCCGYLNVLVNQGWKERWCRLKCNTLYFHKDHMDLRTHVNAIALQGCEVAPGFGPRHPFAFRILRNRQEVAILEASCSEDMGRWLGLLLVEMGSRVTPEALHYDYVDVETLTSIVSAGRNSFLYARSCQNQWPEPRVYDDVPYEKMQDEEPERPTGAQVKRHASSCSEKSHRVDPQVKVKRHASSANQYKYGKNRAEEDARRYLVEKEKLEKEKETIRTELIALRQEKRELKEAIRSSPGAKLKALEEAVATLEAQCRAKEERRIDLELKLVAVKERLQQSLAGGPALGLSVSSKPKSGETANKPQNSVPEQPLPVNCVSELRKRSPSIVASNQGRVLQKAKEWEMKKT
Regarding G112S, the “effect of a mutation on the interaction” value is “with no effect”.

The variants in the next assay derive from B4. To be noted: with rwd2b_human RWDD2B.
As for G112S, the “effect of a mutation on the interaction” value is “disrupting interaction strength”.

In a further assay the parent is B5. To be noted: with tri41_human TRIM41, Q8WV44.
Consider S251F, for which the “effect of a mutation on the interaction” value is on record as “with no effect”.
